# Data taken from the RNAGym collection of RNA variant scans (doi:10.1021/acssynbio.7b00057).
# B1: Pistol ribozyme (parent)
# chain: GGGUCGUUGUUCCAUAAUCGCGUGGAUAUGGCACGCAAGUUUCUACCGGGCACCGUAAAUGUCCGACUGGAGCCGUUCGGGCGGCUAUAAACAGACCUCAGGCCCGAAGCGUGGCGGCACCUGCCGCCGGUGGUAAAAAAGAUCGGAAGAGCACACGUCU
# Variants of: B1
# Experiment: aptazyme ON/OFF ratio, guanine; higher = stronger switching; co-transcriptional cleavage with and without guanine
row,Variant,aptazyme ON/OFF ratio
1,GGGUCGUGAAGAGAUAAUCGCGUGGAUAUGGCACGCAAGUUUCUACCGGGCACCGUAAAUGUCCGACUGGAGCCGUUCGGGCGGCUAUAAACAGACCUCAGGCCCGAAGCGUGGCGGCACCUGCCGCCGGUGGUAAAAAAGAUCGGAAGAGCACACGUCU [U8G G9A U10A U11G C12A C13G],1.09
2,GGGUCGUGAAGAUAUAAUCGCGUGGAUAUGGCACGCAAGUUUCUACCGGGCACCGUAAAUGUCCGACUGGAGCCGUUCGGGCGGCUAUAAACAGACCUCAGGCCCGAAGCGUGGCGGCACCUGCCGCCGGUGGUAAAAAAGAUCGGAAGAGCACACGUCU [U8G G9A U10A U11G C12A C13U],1.27
3,GGGUCGUGAACACAUAAUCGCGUGGAUAUGGCACGCAAGUUUCUACCGGGCACCGUAAAUGUCCGACUGGAGCCGUUCGGGCGGCUAUAAACAGACCUCAGGCCCGAAGCGUGGCGGCACCUGCCGCCGGUGGUAAAAAAGAUCGGAAGAGCACACGUCU [U8G G9A U10A U11C C12A],1.2
4,GGGUCGUGAACGCAUAAUCGCGUGGAUAUGGCACGCAAGUUUCUACCGGGCACCGUAAAUGUCCGACUGGAGCCGUUCGGGCGGCUAUAAACAGACCUCAGGCCCGAAGCGUGGCGGCACCUGCCGCCGGUGGUAAAAAAGAUCGGAAGAGCACACGUCU [U8G G9A U10A U11C C12G],1.23
5,GGGUCGUGAACUCAUAAUCGCGUGGAUAUGGCACGCAAGUUUCUACCGGGCACCGUAAAUGUCCGACUGGAGCCGUUCGGGCGGCUAUAAACAGACCUCAGGCCCGAAGCGUGGCGGCACCUGCCGCCGGUGGUAAAAAAGAUCGGAAGAGCACACGUCU [U8G G9A U10A U11C C12U],1.04
6,GGGUCGUGACUAAAUAAUCGCGUGGAUAUGGCACGCAAGUUUCUACCGGGCACCGUAAAUGUCCGACUGGAGCCGUUCGGGCGGCUAUAAACAGACCUCAGGCCCGAAGCGUGGCGGCACCUGCCGCCGGUGGUAAAAAAGAUCGGAAGAGCACACGUCU [U8G G9A U10C C12A C13A],1.2
7,GGGUCGUGAACAUAUAAUCGCGUGGAUAUGGCACGCAAGUUUCUACCGGGCACCGUAAAUGUCCGACUGGAGCCGUUCGGGCGGCUAUAAACAGACCUCAGGCCCGAAGCGUGGCGGCACCUGCCGCCGGUGGUAAAAAAGAUCGGAAGAGCACACGUCU [U8G G9A U10A U11C C12A C13U],1.32
8,GGGUCGUGAACAGAUAAUCGCGUGGAUAUGGCACGCAAGUUUCUACCGGGCACCGUAAAUGUCCGACUGGAGCCGUUCGGGCGGCUAUAAACAGACCUCAGGCCCGAAGCGUGGCGGCACCUGCCGCCGGUGGUAAAAAAGAUCGGAAGAGCACACGUCU [U8G G9A U10A U11C C12A C13G],1.12
9,GGGUCGUGAACAAAUAAUCGCGUGGAUAUGGCACGCAAGUUUCUACCGGGCACCGUAAAUGUCCGACUGGAGCCGUUCGGGCGGCUAUAAACAGACCUCAGGCCCGAAGCGUGGCGGCACCUGCCGCCGGUGGUAAAAAAGAUCGGAAGAGCACACGUCU [U8G G9A U10A U11C C12A C13A],1.21
10,GGGUCGUGAACCGAUAAUCGCGUGGAUAUGGCACGCAAGUUUCUACCGGGCACCGUAAAUGUCCGACUGGAGCCGUUCGGGCGGCUAUAAACAGACCUCAGGCCCGAAGCGUGGCGGCACCUGCCGCCGGUGGUAAAAAAGAUCGGAAGAGCACACGUCU [U8G G9A U10A U11C C13G],1.04
11,GGGUCGUGAACCAAUAAUCGCGUGGAUAUGGCACGCAAGUUUCUACCGGGCACCGUAAAUGUCCGACUGGAGCCGUUCGGGCGGCUAUAAACAGACCUCAGGCCCGAAGCGUGGCGGCACCUGCCGCCGGUGGUAAAAAAGAUCGGAAGAGCACACGUCU [U8G G9A U10A U11C C13A],1.08
12,GGGUCGUGAACCUAUAAUCGCGUGGAUAUGGCACGCAAGUUUCUACCGGGCACCGUAAAUGUCCGACUGGAGCCGUUCGGGCGGCUAUAAACAGACCUCAGGCCCGAAGCGUGGCGGCACCUGCCGCCGGUGGUAAAAAAGAUCGGAAGAGCACACGUCU [U8G G9A U10A U11C C13U],1.01
13,GGGUCGUGACUACAUAAUCGCGUGGAUAUGGCACGCAAGUUUCUACCGGGCACCGUAAAUGUCCGACUGGAGCCGUUCGGGCGGCUAUAAACAGACCUCAGGCCCGAAGCGUGGCGGCACCUGCCGCCGGUGGUAAAAAAGAUCGGAAGAGCACACGUCU [U8G G9A U10C C12A],1.25
14,GGGUCGUGAACCCAUAAUCGCGUGGAUAUGGCACGCAAGUUUCUACCGGGCACCGUAAAUGUCCGACUGGAGCCGUUCGGGCGGCUAUAAACAGACCUCAGGCCCGAAGCGUGGCGGCACCUGCCGCCGGUGGUAAAAAAGAUCGGAAGAGCACACGUCU [U8G G9A U10A U11C],1.06
15,GGGUCGUGAAGCCAUAAUCGCGUGGAUAUGGCACGCAAGUUUCUACCGGGCACCGUAAAUGUCCGACUGGAGCCGUUCGGGCGGCUAUAAACAGACCUCAGGCCCGAAGCGUGGCGGCACCUGCCGCCGGUGGUAAAAAAGAUCGGAAGAGCACACGUCU [U8G G9A U10A U11G],1.55
16,GGGUCGUGAAGACAUAAUCGCGUGGAUAUGGCACGCAAGUUUCUACCGGGCACCGUAAAUGUCCGACUGGAGCCGUUCGGGCGGCUAUAAACAGACCUCAGGCCCGAAGCGUGGCGGCACCUGCCGCCGGUGGUAAAAAAGAUCGGAAGAGCACACGUCU [U8G G9A U10A U11G C12A],1.08
17,GGGUCGUGAAGUCAUAAUCGCGUGGAUAUGGCACGCAAGUUUCUACCGGGCACCGUAAAUGUCCGACUGGAGCCGUUCGGGCGGCUAUAAACAGACCUCAGGCCCGAAGCGUGGCGGCACCUGCCGCCGGUGGUAAAAAAGAUCGGAAGAGCACACGUCU [U8G G9A U10A U11G C12U],1.3
18,GGGUCGUGAAGGCAUAAUCGCGUGGAUAUGGCACGCAAGUUUCUACCGGGCACCGUAAAUGUCCGACUGGAGCCGUUCGGGCGGCUAUAAACAGACCUCAGGCCCGAAGCGUGGCGGCACCUGCCGCCGGUGGUAAAAAAGAUCGGAAGAGCACACGUCU [U8G G9A U10A U11G C12G],1.48
